Assay results as given in publication PMC10624832.
pKd: −log10 of the molar value. Each block holds one substance with its values, some of them ahead of it.

Key:
[1] = target: Hsp70 (UniProt P11142)
[2] = target: Hsp70 T204A,S494C-AF488 (C267A, C574A, C603A); experiment: fluorescence polarisation; steady-state fluorescence anisotropy; 100 nM Hsp70 T204A,S494C-AF488 titrated with 0-1.0 mM full-length DNAJB6 WT or mutants; 20 min at 37 °C; 50 mM HEPES pH 8.0, 200 mM KCl, 10 mM MgCl, 2 mM ATP; one-site binding model
[3] = target: Hsp70 (UniProt P11142); remark: listed apart in the source
[4] = target: Hsp70 (UniProt P11142); remark: listed apart in the source
[5] = target: Hsp70 (UniProt P11142); remark: listed apart in the source

DNAJB6^JD (res. 1-72), sequence (O75190 1-72): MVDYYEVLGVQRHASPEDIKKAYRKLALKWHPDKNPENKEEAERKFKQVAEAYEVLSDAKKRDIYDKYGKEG
DNAJB6^WT (isoform b), full-length oligomeric, O75190-2 1-241 (natural protein), sequence (O75190 other isoform, or with tags, fused parts or gaps): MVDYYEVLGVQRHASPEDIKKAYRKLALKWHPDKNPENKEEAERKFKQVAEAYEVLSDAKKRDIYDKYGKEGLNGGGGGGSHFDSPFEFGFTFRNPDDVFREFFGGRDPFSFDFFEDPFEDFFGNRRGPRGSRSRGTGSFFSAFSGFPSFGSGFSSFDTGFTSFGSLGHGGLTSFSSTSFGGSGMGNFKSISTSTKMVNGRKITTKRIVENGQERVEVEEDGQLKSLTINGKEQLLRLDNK
DNAJB6^JD-GF WT (res. 1-109), sequence (O75190 1-109): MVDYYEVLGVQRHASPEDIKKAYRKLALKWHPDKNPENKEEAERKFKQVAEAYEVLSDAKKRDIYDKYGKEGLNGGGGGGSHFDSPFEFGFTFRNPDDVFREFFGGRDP

steady-state ATPase activity of Hsp70 (initial rate of phosphate release); roughly 6-8-fold increase [1]: 1.24 nM Pi min^−1
Substance: DNAJB6^JD-GF A50V (from UniProt O75190 1-109) (domain or fragment)

pKd [2]: 3.54
Substance: full-length DNAJB6 F93L (from UniProt O75190-2 1-241) (natural protein)

pKd [2]: 5.82
Substance: full-length DNAJB6 F100V (from UniProt O75190-2 1-241) (natural protein)

pKd [2]: 5.05
Substance: full-length DNAJB6 A50V (from UniProt O75190-2 1-241) (natural protein)

pKd [2]: 4.33
Substance: full-length DNAJB6 P96R (from UniProt O75190-2 1-241) (natural protein)

steady-state ATPase activity of Hsp70, fold enhancement of ATP hydrolysis rate [1]: 4 fold
Substance: DNAJB6^JD-GF E54A (from UniProt O75190 1-109) (domain or fragment)

steady-state ATPase activity of Hsp70 with full-length oligomeric DNAJB6, fold activation [3]: 1.4 fold
Substance: DNAJB6^WT (isoform b), full-length oligomeric, O75190-2 1-241 (natural protein)

steady-state ATPase activity of Hsp70, fold enhancement of ATP hydrolysis rate [1]: 4 fold
Substance: DNAJB6^JD-GF P96R (from UniProt O75190 1-109) (domain or fragment)

steady-state ATPase activity of Hsp70, fold activation over Hsp70 alone [4]: 1.6 fold
Substance: DNAJB6^JD-GF WT (res. 1-109) (from UniProt O75190 1-109) (domain or fragment)

steady-state ATPase activity of Hsp70 (initial rate of phosphate release); roughly 6-8-fold increase [1]: 1.64 nM Pi min^−1
Substance: DNAJB6^JD-GF F100V (from UniProt O75190 1-109) (domain or fragment)

pKd [2]: < 2.00
Substance: DNAJB6^WT (isoform b), full-length oligomeric (from UniProt O75190-2 1-241) (natural protein)

steady-state ATPase activity of Hsp70 (initial rate of phosphate release, PBP fluorescence); 0.25 μM Hsp70, 0.25 μM DNAJB6 variant [5]: 1.74 nM Pi min^−1
Substance: DNAJB6^JD (res. 1-72) (from UniProt O75190 1-72) (domain or fragment)

pKd [2]: 3.22
Substance: full-length DNAJB6 F91I (from UniProt O75190-2 1-241) (natural protein)
